In general, stoichiometry N refers to the number of molecules, sites or subunits per partner or assembly.

The values that follow come from article PMC10306066.

This assay deals with Ralstonia solanacearum lectin (Ralstonia solanacearum). Put plainly: crystal structure.

“Ralstonia solanacearum lectin (natural protein)” yielded a stoichiometry N of 3.
